Measurements reported in the NTF2 design screens of Basanta et al. (2020).

Assay: protease stability score; higher = more stable; yeast display proteolysis, trypsin and chymotrypsin;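 note: relative to predicted unfolded state with 0 unfolded-like and 1 meaning tenfold more protease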
In the case of “NHDEEHLKRLLEDEREMLETGNEDEIRRLLDPHVRLDIDGRNIHGREEVAKWMVKLALRVDVFIIRVKRFHIQGDYIYFDTHIEEIVNGQHISFDVMIIIWKYNGRWLIHSIIVR”, the protease stability score is reported as 1.58.
Sequence “DEDEEVSRRALEKWIKNFLTGNEDSVLELADPHMRIVQGDKEYHGRHEMRDMMTDWLREIRIKTVEERHFRVIDGRVDHHVTLHGIVNGKETVRRMIVISEKVDGKWILHSLEIR” has a protease stability score of 0.907.
“DDMERHARKALRVLIESLMTGDEDDIYRMLDPHVRYIFDGVDFHGRERTKETLERLSREFGLSRVHTELKDSKVYDGRLELHLEVNVDGRRRTVIVHVVKIDGKWYVEELRVQ” gave a protease stability score of 1.26.
With “SDLEMEMKRWMELWLRMFVTGDFRTFLHLADPEYKVSAEGVSSHGRDFHIKELLRWLKEIRIHDFHVKDMDVQGDKAHSDGRHNGIVDGRNRDVNVHNEIVTIDGRLRSVTIRLE” the protease stability score was 0.534.
For “DEEEEERRRIAKELTHLWHTGDEDRLIEMADPNDRILIGDFDIHGWESAMRFLRYFRREFGVKHEEIKDIEIQGEKTHIHSHLKVGDKRHHVLVILVVINGRHKRIEIRIH”, the protease stability score was 0.755.
In the case of “DEEEELAIHFWRLFLHLIITGDWERLTELMDPNVRIDINGKEIHGRELASEHLRKLMEHARFRDHHLEDVKIYDGVVEMHGRIDGRFDGKDVDTRMIVYTVKVNGKWLLKRVVHL”, the protease stability score is reported as 2.32.
Sequence “SEEDEDVKRILELWLRSEETGDEHLSLELADPNTRKHQGDKEFHGMSKLVQLLAELYRRADHSHFIEKRVEVFENHVRIVGHFVLIVGEFRIVVDILILARKIDGRWILTRVNWR” has a protease stability score of 1.51.
Work on “TDRHEIIIHRMKRLMLMELTGDEKLWERLVDPDVRIIFIFNGRRHEFHGREKALERLHDWWDHLRIDHLEVRRYDVINGRARTDMESHDTYDGQHYVIKFELVVQVIDGRVHSVEMIFK” yielded a protease stability score of 1.44.
“DDIREDLLRIIKLFIDYLITGDWKWIEKLADPHVRVEIDVNGKEIERHGMDQLREHLKHLWDRYDHLEFRIDDFKAIGEYSTLNGTLIVVVDGQKKSVEVRVVIVIINGKIDEVRHEQN” showed a protease stability score of -0.239.
Sequence “DEEERAARFVLELIIRTFDTGDEHTIHELLDPHVRLWVGDKTFHGREQITHLIQRHLEELGFDHVHVHHRTIDVQGEKIELHGELELRQGDKRDTRTIKIIVQKVDGRWRITIFEIE” has a protease stability score of 1.48.
With “DEDERSAKHYLDLWHHALETGDEHEEERLLDPHVKVDIGDKTSHGRENTRDIIRRLLEELGADVLEFHIRHVNVVNGRVHLDGELVIKVGDYTLRSRTRLLVLKVNGRWFIERIKIE” the protease stability score was 1.09.
For “SEEEEISKTAIELMIRALHTGDWQHWLHLADPHYRVNINGREHHGREDSLRIINELLELLGVERVELRLEDFRVIDGRIHIITKMHYNGVVTDNRLIMKKVDGKWQLDTVIVT”, the protease stability score was 1.05.
In the case of “DDHEKRLEEYMKHWFENLMTGNEERLHELADPNARFHLHFENHEVDLIGREDIIKWWREFLHRVKNIRHHLDHLEIQGEKSHLDMTLNIDGKEYRVRIIVVIVNGKIHKVIVDIR”, the protease stability score is reported as 2.23.
Work on “SEDEEFAEKYLKEWVERVRTGDEDHLWKLLDPDPRIRIDGKEIIGREIAVKHMSEIRPTSIRLTSFHSQGDKINVDGETDGEFNGVRQRQRVIYIILKVDGRWLLHSVEFK” yielded a protease stability score of 1.05.
For “SETEEAATLMLRMLIETIYTGDEETYKRLADPHVKVRIGDKTFHGREQVIERLHRTWKEMRIEDVEVQDMRYQGDFIRNRTHILLHQGEYRHRFDVEIIVFKFNGQWILTSQHFH”, the protease stability score was 1.11.
“DELTELAEKAKELFVRIEKTGDEKTWSEYADPDVRIHVNGVDLHGREESLKWMHDLRERIKNMRVEFKDFKIEIIGNKVIIFIDGRLRYDGRELELESVYYVSKFNGRWRVESEELRIR” showed a protease stability score of 1.37.
For “SEEEENARRAAEHHEHVLKTGDEDHMTRMFDPNVRVRQGDKEIHGREEFRRLFHELVRRYPNLKFELEDVDVFNGKVVVHMIFWVDGRTIEIHWFIDKFDGQWVVEEVEFR”, the protease stability score was 1.19.
With “DHKDELAHRLVEHILKLLLTGDEEHWYELLDPNVRIHINGRNSVGREEALKVIQFFWELLGVKHIELKEVRFQGDKVHSDTRLDINGVKSRVRIEVIIINGRIDEVRIDIR” the protease stability score was 2.25.
Sequence “SEDDKMQEIAVELLEHTLKTGDEHTSKKLVDPHVRLQIGDKEHHGRDEVTRWLTELAQRADHMHIEIKDMFNVNGVVIMHGTLKIHIGDKELRLDVEWIILKYNGKWLIHSIHIR” has a protease stability score of 1.94.
For “DEWKRLALEVLRLWEEFMSTGDEKSVEELADPNVRILYDGVQLHGMDEVRRHLKELREHSHHVEIRRATVIDGRVHVDGTLDVTIEIGDKKIREEIRVKIHIIKVNGKWFVHSVEFR”, the protease stability score was 1.49.
Work on “HEHEEELREFLRLWIEDLVTGNEDSLREFADPNMRIEQGDKEHHGREQFLEIMHRLVREARLEIILRRMNIFDGKANIDGELMIRIGDKHIRHHLRIIILKIDGVWLLKSIHVR” yielded a protease stability score of 1.94.
Work on “DHMDEELKEFLRHFLEYFRTGDFDSLYKLIDPHVKSDINGQEIHGMDLQSFWHRHIRERLGVNHMHIEITEIRYINGRAEVYGKLEVNVNGKRFEHDVHMFNLKVDGKWILESLEIR” yielded a protease stability score of 2.28.
With “DEDTEEMRRFLKAFIRALETGNFEETLRLLDPNVRIRIGDKQLIGREEWHKWRERVDHYEVDDIEIEDMRVIGNKVHVFGRVDIKLIIGDKEHQDRKEVHIIMLKVNGRWLIHEIEVH” the protease stability score was 1.91.
With “SEHDKEMREWIKTLFELMYTGDWVILRELADPNAKFRQGDFTKIGREQYERHVRRHLDLLGHDNIEIHWEDVEIVGNYAVFHGHLTFNGKSTHVIIRVFVIDGRMKHEHVEIK” the protease stability score was 1.3.
For “SEQERKVREWTEEEIRWFLTGDEDIWSHFADPNARSVHHIGNKTIHTHGMEDVTRVIRELLQELGADHRTVHELEIQGDKSTVNLEIRIGDKTYEVHIIIIIINGKRKYHIVHFRVQ”, the protease stability score was 0.982.
